molecular target: HLA-A*02:01 (Homo sapiens, UniProt P04439, D140Y/D185E/D98H/E176V/E277Q/G131W/G231S/I119V/I121R/I166T/I218V/L300P/L318F/N151K/N90K/P208A/P217A/Q86G/Q94H/R138H/R169H/T345S); assay: MHC binding assay (UV-ligand exchange, ELISA of exchange yield); conditions: binding to HLA-A*02:01, UV-ligand exchange
Outline: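 ELISA of β2m retained on streptavidin-captured, 100-fold diluted complexes (HRP anti-β2m, TMB, 450 nm) gives the yield. Complexes come from UV-triggered exchange of a photocleavable placeholder peptide for the candidate, which must bind to stop complex dissociation.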

Substance	Peptide exchange (MHC class I binding score, peptide exchange yield)
562 (YLEELPEKLKL; listed as Homo sapiens) [compound 562]	“+++” (≥50 = +++)
563 (WLLPYNGVTV; listed as Homo sapiens) [compound 563]	“+++” (≥50 = +++)
564 (TVTNAVVTV; listed as Homo sapiens) [compound 564]	“+++” (≥50 = +++)
567 (SLLPLDDIVRV; listed as Homo sapiens) [compound 567]	“+++” (≥50 = +++)
568 (TLYDIAHTPGV; listed as Homo sapiens) [compound 568]	“++++” (≥75% = ++++)
570 (ALANQIPTV; listed as Homo sapiens) [compound 570]	“++” (≥20% = ++)
573 (ILVANAIVGV; listed as Homo sapiens) [compound 573]	“+++” (≥50 = +++)
575 (YLISQVEGHQV; listed as Homo sapiens) [compound 575]	“+++” (≥50 = +++)
577 (VMFEDGVLMRL; listed as Homo sapiens) [compound 577]	“+++” (≥50 = +++)
579 (NLMEMVAQL; listed as Homo sapiens) [compound 579]	“++” (≥20% = ++)
584 (ALAEVAAMENV; listed as Homo sapiens) [compound 584]	“+++” (≥50 = +++)
585 (ALWDLAADKQTL; listed as Homo sapiens) [compound 585]	“++++” (≥75% = ++++)
587 (VMNDRLYAI; listed as Homo sapiens) [compound 587]	“+++” (≥50 = +++)
588 (SLLPLSHLV; listed as Homo sapiens) [compound 588]	“+++” (≥50 = +++)
589 (KLYPQLPAEI; listed as Homo sapiens) [compound 589]	“+++” (≥50 = +++)
590 (SLIEKLWQT; listed as Homo sapiens) [compound 590]	“++” (≥20% = ++)
591 (SMAELDIKL; listed as Homo sapiens) [compound 591]	“+++” (≥50 = +++)

Substance	Peptide exchange (MHC class I binding score, peptide exchange yield)
594 (IMLKGDNITL; listed as Homo sapiens) [compound 594]	“+++” (≥50 = +++)
595 (VLLSIYPRV; listed as Homo sapiens) [compound 595]	“+++” (≥50 = +++)
596 (ALLDQTKTLAESAL; listed as Homo sapiens) [compound 596]	“+++” (≥50 = +++)
597 (KLLEGQVIQL; listed as Homo sapiens) [compound 597]	“+++” (≥50 = +++)
598 (FLFPHSVLV; listed as Homo sapiens) [compound 598]	“+++” (≥50 = +++)
600 (ALAAPDIVPAL; listed as Homo sapiens) [compound 600]	“+++” (≥50 = +++)
601 (SAFPFPVTV; listed as Homo sapiens) [compound 601]	“+++” (≥50 = +++)
606 (ALWETEVYI; listed as Homo sapiens) [compound 606]	“+++” (≥50 = +++)
607 (RLYSGISGLEL; listed as Homo sapiens) [compound 607]	“+++” (≥50 = +++)
608 (SLLSVSHAL; listed as Homo sapiens) [compound 608]	“+++” (≥50 = +++)
610 (LLAPTPYIIGV; listed as Homo sapiens) [compound 610]	“+++” (≥50 = +++)
612 (YLYNEGLSV; listed as Homo sapiens) [compound 612]	“+++” (≥50 = +++)
613 (RLLPPGAVVAV; listed as Homo sapiens) [compound 613]	“+++” (≥50 = +++)
621 (VLMDRLPSLL; listed as Homo sapiens) [compound 621]	“++++” (≥75% = ++++)
622 (RLLGEEVVRVLQA; listed as Homo sapiens) [compound 622]	“+++” (≥50 = +++)
623 (YLVEDIQHI; listed as Homo sapiens) [compound 623]	“+++” (≥50 = +++)
635 (SLDSTLHAV; listed as Homo sapiens) [compound 635]	“+++” (≥50 = +++)

Further lines, results first:

Peptide exchange (MHC class I binding score, peptide exchange yield)	Substance
“+++” (≥50 = +++)	561 (YLQLTQSEL; listed as Homo sapiens) [compound 561]
“++” (≥20% = ++)	565 (ALQETPTSV; listed as Homo sapiens) [compound 565]
“++” (≥20% = ++)	566 (VIADGGIQNV; listed as Homo sapiens) [compound 566]
“+++” (≥50 = +++)	569 (KLVDRTWTL; listed as Homo sapiens) [compound 569]
“+++” (≥50 = +++)	571 (LLLTTIPQI; listed as Homo sapiens) [compound 571]
“+++” (≥50 = +++)	572 (ALADLIEKELSV; listed as Homo sapiens) [compound 572]
“++” (≥20% = ++)	574 (YLLQEPPRTV; listed as Homo sapiens) [compound 574]
“++++” (≥75% = ++++)	576 (ILLNNSGQIKL; listed as Homo sapiens) [compound 576]
“+++” (≥50 = +++)	578 (FLDPGGPMMKL; listed as Homo sapiens) [compound 578]
“++” (≥20% = ++)	580 (LLMENAERV; listed as Homo sapiens) [compound 580]
“+++” (≥50 = +++)	582 (TLCDVILMV; listed as Homo sapiens) [compound 582]
“+++” (≥50 = +++)	583 (ILANDGVLLAA; listed as Homo sapiens) [compound 583]
“+++” (≥50 = +++)	586 (KLKPGDLVGV; listed as Homo sapiens) [compound 586]
“+++” (≥50 = +++)	592 (RLLSAAENFL; listed as Homo sapiens) [compound 592]
“+++” (≥50 = +++)	593 (GLPRFGIEMV; listed as Homo sapiens) [compound 593]
“+++” (≥50 = +++)	599 (YLLNDASLISV; listed as Homo sapiens) [compound 599]
“++++” (≥75% = ++++)	602 (YLLEQIKLIEV; listed as Homo sapiens) [compound 602]
“++” (≥20% = ++)	603 (FLIEPEHVNTV; listed as Homo sapiens) [compound 603]
“+++” (≥50 = +++)	604 (SILDRDDIFV; listed as Homo sapiens) [compound 604]
“+++” (≥50 = +++)	605 (KLYEAVPQL; listed as Homo sapiens) [compound 605]
“+++” (≥50 = +++)	609 (ALWKQLLEL; listed as Homo sapiens) [compound 609]
“++++” (≥75% = ++++)	611 (YLLDDGTLVV; listed as Homo sapiens) [compound 611]
“+++” (≥50 = +++)	614 (LLLPDQPPYHL; listed as Homo sapiens) [compound 614]
“++” (≥20% = ++)	615 (VLPPDTDPA; listed as Homo sapiens) [compound 615]
“+++” (≥50 = +++)	616 (VLIDEVESL; listed as Homo sapiens) [compound 616]
“+++” (≥50 = +++)	617 (ALMYESEKVGV; listed as Homo sapiens) [compound 617]
“+++” (≥50 = +++)	618 (VLFDSESIGIYV; listed as Homo sapiens) [compound 618]
“+++” (≥50 = +++)	619 (ALQDRVPLA; listed as Homo sapiens) [compound 619]
“++++” (≥75% = ++++)	620 (KLLNKIYEA; listed as Homo sapiens) [compound 620]
